Reference: patent US20140304853

What was measured:
Assay in all cases: cell_activity
[1] = tested on: ZFN 34480 (synthetic); conditions: pair 34480/34481, A-genome; B 11946, D 11790; wheat protoplasts
[2] = tested on: ZFN 34457 (synthetic); conditions: pair 34456/34457, A-genome; B 1716, D 10399; wheat protoplasts
[3] = tested on: ZFN 34472 (synthetic); conditions: pair 34472/34473, A-genome; B 100300, D 87770; wheat protoplasts
[4] = tested on: ZFN 29730 (synthetic); conditions: pair 29732/29730, D-genome, donor pDAS000152 10:1, SEC protoplasts; A 6717, B 6306
[5] = tested on: ZFN 34474 (synthetic); conditions: pair 34474/34475, A-genome; B 251142, D 202711; wheat protoplasts
[6] = tested on: ZFN 34483 (synthetic); conditions: pair 34482/34483, A-genome; B 33888, D 28719; wheat protoplasts
[7] = tested on: ZFN 34481 (synthetic); conditions: pair 34480/34481, A-genome; B 11946, D 11790; wheat protoplasts
[8] = tested on: ZFN 34477 (synthetic); conditions: pair 34476/34477, A-genome; B 56001, D 44459; wheat protoplasts
[9] = tested on: ZFN 34482 (synthetic); conditions: pair 34482/34483, A-genome; B 33888, D 28719; wheat protoplasts
[10] = tested on: ZFN 34471 (synthetic); conditions: pair 34470/34471, A-genome; B 156139, D 134694; wheat protoplasts
[11] = tested on: ZFN 34456 (synthetic); conditions: pair 34456/34457, A-genome; B 1716, D 10399; wheat protoplasts
[12] = tested on: ZFN 29732 (synthetic); conditions: pair 29732/29730, D-genome, donor pDAS000152 10:1, SEC protoplasts; A 6717, B 6306
[13] = tested on: ZFN 34476 (synthetic); conditions: pair 34476/34477, A-genome; B 56001, D 44459; wheat protoplasts
[14] = tested on: ZFN 34473 (synthetic); conditions: pair 34472/34473, A-genome; B 100300, D 87770; wheat protoplasts
[15] = tested on: ZFN 34470 (synthetic); conditions: pair 34470/34471, A-genome; B 156139, D 134694; wheat protoplasts
[16] = tested on: ZFN 34478 (synthetic); conditions: pair 34478/34479, A-genome; B 2731, D 3069; wheat protoplasts
[17] = tested on: ZFN 34475 (synthetic); conditions: pair 34474/34475, A-genome; B 251142, D 202711; wheat protoplasts
[18] = tested on: ZFN 34479 (synthetic); conditions: pair 34478/34479, A-genome; B 2731, D 3069; wheat protoplasts

Q: “ACCATGGGGATGGAGTCGAGGAGNGCGT (double strand) [34480 site]” was tested. Which activity (NHEJ events per million reads) [1] did it give?
A: 11800

Q: For “ACCTCCCCCGCCGTCGCATTCTCNGGCG (double strand) [34457 site]”, which activity (NHEJ events per million reads) [2] is on record?
A: 12600

Q: Which activity (NHEJ events per million reads) [3] does the source give for “ACGCCGACGCGGCCGGACGCGCGGGCGT (double strand) [34472 site]” here?
A: 120000

Q: Which activity (ppm NHEJ editing) [4] does the source give for “AGGCAGCACGTGCTCCTGATGCGGGACT (double strand) [29730 site]” here?
A: 7910

Q: With “CAGACGCCGACGCGGCCGGACGCGCGGG (double strand) [34474 site]” as the sequence, how does the activity (NHEJ events per million reads) [5] read?
A: 248000

Q: Which activity (NHEJ events per million reads) [6] does the source give for “CATCACGGGCCAGGTCCCCCGCCGCATG (double strand) [34483 site]” here?
A: 28700

Q: How did the activity (NHEJ events per million reads) [7] turn out when “CCATCACGGGCCAGGTCCCCCGCCGCAT (double strand) [34481 site]” was run?
A: 11800

Q: For “CCTCCGGCCCGGGGGCCACCAACCTCGT (double strand) [34477 site]”, which activity (NHEJ events per million reads) [8] is on record?
A: 48300

Q: Which activity (NHEJ events per million reads) [9] does the source give for “CGACCATGGGGATGGAGTCGAGGAGNGC (double strand) [34482 site]” here?
A: 28700

Q: How did the activity (NHEJ events per million reads) [10] turn out when “CGTCGGCGTCTGCGTCGCCACCTCCGGC (double strand) [34471 site]” was run?
A: 178000

Q: “CNGCGGCCATGGCGGCGGCGAGGGTTTG (double strand) [34456 site]” was tested. Which activity (NHEJ events per million reads) [11] did it give?
A: 12600

Q: “GATCCCAAGCGGTGGTGCTTTCAAGGAC (double strand) [29732 site]” was tested. Which activity (ppm NHEJ editing) [12] did it give?
A: 7910

Q: “GCGACGCAGACGCCGACGCGGCCGGACG (double strand) [34476 site]” was tested. Which activity (NHEJ events per million reads) [13] did it give?
A: 48300

Q: Which activity (NHEJ events per million reads) [14] does the source give for “GCGTCGCCACCTCCGGCCCGGGGGCCAC (double strand) [34473 site]” here?
A: 120000

Q: “GGCCGGACGCGCGGGCGTANCCGGACGC (double strand) [34470 site]” was tested. Which activity (NHEJ events per million reads) [15] did it give?
A: 178000

Q: Which activity (NHEJ events per million reads) [16] does the source give for “GGGATGGAGTCGAGGAGNGCGTCNGCGA (double strand) [34478 site]” here?
A: 3070

Q: “GTCGCCACCTCCGGCCCGGGGGCCACCA (double strand) [34475 site]” was tested. Which activity (NHEJ events per million reads) [17] did it give?
A: 248000

Q: With “TGGTCGCCATCACGGGCCAGGTCCCCCG (double strand) [34479 site]” as the sequence, how does the activity (NHEJ events per million reads) [18] read?
A: 3070
